Experimental data: article doi:10.1101/2023.05.22.541748 (bioRxiv, 2023)

Target: ubiquitin (wild type, Q40Ub) (UniProt P0CG48 1-76)
Experiment: NMR chemical shift perturbations of the conjugate against the free proteins

binding result: binds
B1: Ubc13 C87K/K92T/K94Q (enzyme)
chain: MAGLPRRIIKETQRLLAEPVPGIKAEPDESNARYFHVVIAGPQDSPFEGGTFKLELFLPEEYPMAAPKVRFMTKIYHPNVDKLGRIKLDILTDQWSPALQIRTVLLSIQALLSAPNPDDPLANDVAEQWKTNEAQAIETARAWTRLYAMNNI
